B1: Version 5: humanized 2G7, ArgH71Ala, AlaH49Gly, PheH67Ala; SEQ ID Nos. 3 and 4 (antibody, V domains shown)
VL: DIQMTQSPSSLSASVGDRVTITCRASQSVLYSSNQKNYLAWYQQKPGKAPKLLIYWASTRESGVPSRFSGSGSGTDFTLTISSLQPEDFATYYCHQYLSSDTFGQGTKVEIKRTVA
VH: EVQLVESGGGLVQPGGSLRLSCAASGYAFTNYLIEWVRQAPGKGLEWVGVNNPGSGGSNYNEKFKGRATISADNSKNTLYLQMNSLRAEDTAVYYCARSGGFYFDYWGQGTLVTVSSASTKGPS
modifications: Sequence is synthesized
B2: V5H.g1L2: Same as Version 5 except the CDR L2 is reverted to human germline kappa locus sequence YASSLQS (antibody, V domains shown)
VH: EVQLVESGGGLVQPGGSLRLSCAASGYAFTNYLIEWVRQAPGKGLEWVGVNNPGSGGSNYNEKFKGRATISADNSKNTLYLQMNSLRAEDTAVYYCARSGGFYFDYWGQGTLVTVSS
VL: DIQMTQSPSSLSASVGDRVTITCRASQSVLYSSNQKNYLAWYQQKPGKAPKLLIYYASSLQSGVPSRFSGSGSGTDFTLTISSLQPEDFATYYCHQYLSSDTFGQGTKVEIK
B3: V5H.g1L1glL2: Same as Version 5 except CDR L1 and CDR L2 reverted to human germline kappa locus sequences (antibody, V domains shown)
VH: EVQLVESGGGLVQPGGSLRLSCAASGYAFTNYLIEWVRQAPGKGLEWVGVNNPGSGGSNYNEKFKGRATISADNSKNTLYLQMNSLRAEDTAVYYCARSGGFYFDYWGQGTLVTVSS
VL: DIQMTQSPSSLSASVGDRVTITCRASQGISSYLAWYQQKPGKAPKLLIYYASSLQSGVPSRFSGSGSGTDFTLTISSLQPEDFATYYCHQYLSSDTFGQGTKVEIK

Experiments:
[1] = tested on: TGF-beta extracellular domain (ECD); assay: Binding ELISA of chimeric and humanized 2G7 versions; details: for binding to TGF-beta of CDR mutants of hu2G7 Version 5 IgG: germline revertants / CDR H2 mutant
Method: DNA sequencing of the chimeric clone allowed identification of the CDR residues (Kabat et al., supra). Using oligonucleotide site-directed mutagenesis, all six of these CDR regions were introduced into a complete human framework (VL kappa subgroup I and VH subgroup III) contained on plasmid VX4 as previously described (Presta et al., Cancer Research, 57: 4593-4599 (1997)). Protein from the resultant “CDR-swap” was expressed and purified as above. Binding studies were performed to compare the two versions. Briefly, a NUNC MAXISORP™ plate was coated with 1 microgram per ml of TGF-beta extracellular domain (ECD; produced as described in WO 90/14357) in 50 mM of carbonate buffer, pH 9.6, overnight at 4° C., and then blocked with ELISA diluent (0.5% BSA, 0.05% POLYSORBATE™ 20, PBS) at room temperature for 1 hour. Serial dilutions of samples in ELISA diluent were incubated on the plates for 2 hours. After washing, bound Fab fragment was detected with biotinylated murine anti-human kappa antibody (ICN 634771) followed by streptavidin-conjugated horseradish peroxidase (Sigma) and using 3,3′,5,5′-tetramethyl benzidine (Kirkegaard & Perry Laboratories, Gaithersburg, Md.) as substrate. Absorbance was read at 450 nm.

[2] = tested on: TGF-beta; assay: Mouse messangial cell proliferation assay; format: cell-based; details: antibody 20 μg/ml; TGF-beta at 1 ng/ml level; 48 hours
Method: A mouse messangial cell proliferation assay was used to test a control antibody and several humanized antibodies (V5H.V5L, V5H.gIL2, H2NI.V5L, V5H.gIL1gIL2, and H2N1.gIL gIL2). The protocol is as follows:
On day 1: Mouse messangial cells were plated on a 96-well plate in Media (a 3:1 mixture of Dulbecco's modified Eagle's medium and Ham's F12 medium-95%-fetal bovine serum-5%-supplemented with 14 mM HEPES buffer) and grown overnight.
On day 2: TGF-beta with three different concentrations (100 ng, 10 ng and 1 ng) and five different types of humanized TGF antibody (20 μg/ml) were diluted in serum-free Media and added to the cells. A mouse TGF antibody was used as a control (2G7).
On day 4: After 48 hours incubation, 20 μl of reaction buffer (CELLTITER 96® AQUEOUS ONE SOLUTION REAGENT™ containing a tetrazolium compound 3-(4,5-dimethylthiazol-2-yl)-5-(3-carboxymethoxyphenyl)-2-(4-sulfophenyl)-2H-tetrazolium, inner salt, and an electron coupling reagent (phenazine ethosulfate) (Promega Inc. Cat number G3580)) was added to each well of the plate and allowed to incubate for 2 hours. The absorbance (OD) was measured at 490 nm.

[3] = tested on: TGF-beta1 through -beta3; assay: 3T3 cell proliferation assay, neutralization of TGF-betas; format: cell-based, mouse; details: 3T3 cells stimulated with one of three TGF-betas
Method: Various humanized antibodies were tested for their activity in neutralizing various TGF-betas versus 2G7 using the 3T3 cell line from fibroblasts of disaggregated Swiss mouse embryos stimulated with one of three TGF-betas in vitro and then their proliferation was measured as activity.

Row | Molecule | binding to TGF-beta compared to chimeric 2G7 Fab fragment ([1]; humanized versions (FR mutants)) | blocking of cell inhibition induced by TGF-beta [2] | activity in neutralizing TGF-betas versus 2G7 [3] | binding to TGF-beta of CDR mutants of hu2G7 Version 5 IgG [1]
1 | B1 | binding restored to that of the original chimeric 2G7 Fab fragment | blocked cell inhibition similarly to the control | – | –
2 | B2 | – | – | comparable activity, with V5H.gIL2 being the least effective | bound to TGF-beta as well as V5H.V5L
3 | B3 | – | – | – | did not bind as well as the chimera
